This is an account of results in publication PMC7450098, “The maturase HydF enables [FeFe] hydrogenase assembly via transient, cofactor-dependent interactions” (The Journal of Biological Chemistry, 2020).

“And” between values parts separate entries of the source, which are not always exact repeats. Equal entries are not always repeated.

As usually defined, the stoichiometry N is a count of units in the complex or per binding partner.

Assay [1] deals with HydF from Thermotoga maritima (Thermotoga maritima). Description: GEMMA (gas-phase electrophoretic macromolecule analysis); isolated HydF or HydA1, each as apo, [4Fe4S] and holo form; 0.02 µg/µl protein in 20 mM ammonium acetate, 0.005% Tween-20.
The target is the same in assay [2]. Description: GEMMA (gas-phase electrophoretic macromolecule analysis); mixtures of metal-free apo-HydF with HydA1 (apo, [4Fe4S] or holo); 0.02 µg/µl each protein in 20 mM ammonium acetate, 0.005% Tween-20.
For assay [3], the target named is HydA1 [FeFe] hydrogenase from Chlamydomonas reinhardtii (Chlamydomonas reinhardtii). Description: GEMMA (gas-phase electrophoretic macromolecule analysis); mixtures of metal-loaded HydF ([4Fe-4S]-HydF or holo-HydF) with HydA1 (apo, [4Fe4S] or holo); 0.02 µg/µl each protein in 20 mM ammonium acetate, 0.005% Tween-20.
Assay [4] addresses HydF from Thermotoga maritima (Thermotoga maritima). Described as above.
For assay [5] the target is unchanged. Description: SEC + other: GEMMA (gas-phase electrophoretic macromolecule analysis); fraction P1 (63 ml) of apo-HydF from Superdex-200 (50 mM Tris-HCl pH 8.0, 150 mM NaCl), then wide-scan GEMMA at 0.02 µg/µl protein in 20 mM ammonium acetate, 0.005% Tween 20; 1 mM DTT added to samples.
The target is the same in assay [6]. Description: SEC + other: GEMMA (gas-phase electrophoretic macromolecule analysis); fractions P2 of apo-HydF (70 ml) and apo-HydA1 (75 ml) from Superdex-200 (50 mM Tris-HCl pH 8.0, 150 mM NaCl), then wide-scan GEMMA at 0.02 µg/µl protein in 20 mM ammonium acetate, 0.005% Tween 20; 1 mM DTT added to samples.
Assay [7] has as its target T1, HydF (TmHydF) (Thermotoga maritima, UniProt Q9WYS6).
T1 construct: gene TM_0445; full length, expressed in E. coli Rosetta (II), heat step and phenyl-Sepharose; about 45 kDa; mainly dimer, some tetramer; apo-form reconstituted with [4Fe-4S]
T1 sequence (Q9WYS6 1-404): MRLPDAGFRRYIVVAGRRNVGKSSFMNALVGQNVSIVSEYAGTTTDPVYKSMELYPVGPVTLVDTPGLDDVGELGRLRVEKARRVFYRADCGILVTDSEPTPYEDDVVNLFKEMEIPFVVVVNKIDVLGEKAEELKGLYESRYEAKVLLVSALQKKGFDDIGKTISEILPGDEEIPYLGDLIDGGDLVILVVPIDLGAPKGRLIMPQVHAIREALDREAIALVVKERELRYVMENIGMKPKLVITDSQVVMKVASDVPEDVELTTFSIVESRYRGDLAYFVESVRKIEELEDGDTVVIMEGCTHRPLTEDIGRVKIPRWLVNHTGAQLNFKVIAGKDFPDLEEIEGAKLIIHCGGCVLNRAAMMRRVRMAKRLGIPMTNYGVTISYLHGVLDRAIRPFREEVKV
Description: in vitro reconstitution; spectroscopy; GEMMA. The assay is classed as binding. The settings on record: anaerobic reconstitution of apo-protein.

In assay [8] the target is T2, HydA1 (CrHydA1) (Chlamydomonas reinhardtii, UniProt Q9FYU1).
T2 construct: gene hyd1; His-tagged, purified recombinant; theoretical mass 49 kDa; monomer; apo-form reconstituted to [4Fe-4S]-HydA1
T2 sequence (Q9FYU1 56-497): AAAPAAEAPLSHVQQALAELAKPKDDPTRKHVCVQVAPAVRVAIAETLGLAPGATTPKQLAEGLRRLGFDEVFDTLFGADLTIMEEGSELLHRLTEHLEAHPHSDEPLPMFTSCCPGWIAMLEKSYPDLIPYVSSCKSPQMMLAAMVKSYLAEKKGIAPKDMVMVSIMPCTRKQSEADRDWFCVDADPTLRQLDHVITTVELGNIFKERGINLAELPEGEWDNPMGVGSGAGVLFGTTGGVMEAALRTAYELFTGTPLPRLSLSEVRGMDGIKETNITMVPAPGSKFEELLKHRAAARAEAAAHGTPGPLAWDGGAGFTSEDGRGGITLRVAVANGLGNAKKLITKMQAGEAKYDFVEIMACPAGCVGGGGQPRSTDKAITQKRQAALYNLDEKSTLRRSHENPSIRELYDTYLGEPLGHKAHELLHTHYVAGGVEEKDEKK
Description: in vitro reconstitution; spectroscopy; GEMMA. The assay is classed as binding. As to conditions: anaerobic reconstitution of apo-protein.

As to “HydF from Thermotoga maritima (natural protein)”, the stoichiometry N is 2 and 4 and > 6 in assay [1]; 2 and 4 in assay [2]; 2 and 4 in assay [4]; 4 and 2 and 6 in assay [5]; 2 in assay [6]. Also, the stoichiometry N (HydF per HydA1) in assay [3] was found to be 2.
Turning to `[S]12[Fe]3[S]4[Fe]1[S]1[Fe]2[S]3[Fe]41` [[4Fe-4S] cluster], the “in vitro reconstitution; spectroscopy; GEMMA” value in assay [7] was “The [4Fe4S] clusters in apo-HydA1, apo-HydF, and the truncated HydF apo-proteins were reconstituted”; in assay [8] it was “The [4Fe4S] clusters in apo-HydA1, apo-HydF, and the truncated HydF apo-proteins were reconstituted”.
